Drawing on PMC9135449, this text covers binding for one sequence.

The series addresses T1, HP1043 (Helicobacter pylori 26695?) (UniProt O25684).
T1 sequence: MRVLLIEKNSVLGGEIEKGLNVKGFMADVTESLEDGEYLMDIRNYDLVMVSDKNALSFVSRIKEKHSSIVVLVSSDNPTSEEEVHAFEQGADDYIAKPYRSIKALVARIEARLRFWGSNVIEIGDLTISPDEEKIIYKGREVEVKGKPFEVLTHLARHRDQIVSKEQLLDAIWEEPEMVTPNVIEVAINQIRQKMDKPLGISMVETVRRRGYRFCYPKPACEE
In words: EMSA. Particulars: 10 mM Tris-HCl pH 7.5, 40 mM KCl, 100 ug/ml BSA, 1 mM DTT, 5% glycerol, 25 ul, room temperature 30 min; 6% native PAGE in 45 mM Tris/45 mM orthoboric acid ….

Consider “GCCAAAACGCCTAAAGCCACAATAACCTTTTTCATCGTTTGTCTCCTCTACTTATCAAAATGATCTTAAAATGATACAATTACAAGTTTAAGTTTTGCTTAAAAAATGAAGTGAAAATAAGAGAAATAAATATGATTTTATACATTCATATCCCCTTTTGTGAAAATAAATGCGGTTATTGCGCTTTCAA (double strand) [Php1227 190-bp promoter probe]”, for which the binding entry was “binds”.
